Assay results taken from the DeepSol protein solubility set.

Assay: soluble on expression in E. coli; label from the status in PepcDB or PDB records

| Sequence | soluble on expression in E. coli |
| --- | --- |
| MSLDIKRVLKAAPTKMRSREPLQQLWTPWGERIEHEWLSARAGNKAFNPAEEGERTLDEGRTPILGEHPRPTMVRDNCTMLNGWWDYAIVSIPEDETAPKWRKTAAMLTRDEAVRAVKETAIPQTFDGKILVPFSPESALSGVHQTIYPDNLLWYRTVVHPVTLGGEETVRQIGDANRLILHFEAVDYVCACYVNGQLAGTHVGGYLPFDVDISAFIDPDDAFEIALCVYDPNDSGTQLRGKQKIEREGIWYTAQSGIWQSVWLEIVPEAYLRTLTLKGASDGKLFVRAEIGGDKPNAKLHIVVTDPADGTVVADETLPAGVRKVRAEIATAAEHLWSPADPYLYDVRAELRYGSAKPAETAGDAAVVQSQPMDVVSSYCAFRSVEIKPDTKGVARFHLNGKPLFVKGVLDQGYWPDGLMTAPDDEALTHDITAMKNAGFNMLRKHIKIESARWYYHCDRLGMLVWQDAVSGGGTDGEYNAWTTNRKPTLIRSTWNKFRDDTAKHFTALGADDPIYRRDWSRTCDAMVHMLGGHPSIVTWTLFNEGWGQFDACDATERIHALDPTRPIDATSGWYDQHCGDYHSVHNYFRPLEIYPDKGPLRGYVAEFEKKHRRRRRAAHYVVLPVARHGVRAFVISEFGGLAQLVPEHAAVSRAYGYGEYDSIDDWRAAVRSVLASAAALESRGLAGYVYTQVSDVEEELNGLLTYDRRVDKFAEEGHHHHHH | soluble |
| MAHHHHHHHRSAAGTIWEFDGGACGARTALVKVDRVDRRYQDLVTRGFNGRFRGRPDVVYVVHTADQVVDAVNQAMAAGQRIAVRSGGHCFEGFVDDPAVRAVIDMSQMRQVFYDSGKRAFAVEPGATLGETYRALYLDWGVTIPAGVCPQVGVGGHVLGGGYGPLSRRDGVVADHLYAVEVVVVDASGRARKVVATSAADDPNRELWWAHTGGGGGNFGIVTRYWFRTPGATGTDPSQLLPKAPTSTLRHIVTWDWSALTEEAFTRIIDNHGAWHQSNSAAGTPYASMHSVFYLNSRAAGQILLDIQIDGGLDGAEALLNDFVAAVNEGTGVEPAVQRSTEPWLRATLANKFDTGGFDRTKSKGAYLRKPWTAAQAATLYRHLSADSQVWGEVSLYSYGGKVNSVPETATATAQRDSIIKVWMSATWMDPAHDDANLAWIREIYREIFATTGGVPVPDDRTEGTFINYPDVDLVDERWNTSGVPWYTLYYKGNYPRLQKVKARWDPRDVFRHALSVRPPG | soluble |
| LKRDFIILGNGPRLQNSTYQCKHCDSKLQSTAELTSHLNIHNEEFQKRAKRQERRKQLLSKQKYADGAFADFKQE | soluble |
| MRLEYRLNDETKGYPALWNYANISNSEIIARMTCEYFIKEKNTYVVTATSVDPDGTAVIYIQKEVFANDPSDPTYSYIGFEIRELSETSSNIVDSQDVWNYEEILPSLHSDIIYIQRDGMSMEFSLDSREIDEDRKCYIYYGNFTGESR | soluble |
| MPADRVAFPPTLIGIELDPRQGLSKQLYEILRRQILDGRLSSGMRLPASRDLAKSLAISRNSVMRAFDQLYAEGFIEGRVGDGTYVAQLAGRHAALQRNAPGKLSTNLPTGLHTGLCTGLSTFAVENTQNLLNQVIHNPALQRVEKHHLNEPPDDRPKAFRVGVPAFDLFPFALWGKLYASFWRKPNLDQLGYGAAAGEWRLRELVAAYLRSSRGLGCTAEQIVITSGAQHAISLCAQLLVTPGEGVAVENPGYRAAGHAFALAGARLQGVAVDSEGMRCADLEQTDCRLAYVTPSHQYPTGVVMSLARRLELLAWAEKNQSWIVEDDYDGEYRYSGSPLAPLAALDQNGRVLYVGTFGKIVFPALRLGYLVLPEHLVRPFSQRKAVDMRHTEIGVQAVMAQFIAQGHFQRHIRRMRRAALSRRDALLAGWPDNVPGCAAMPKVVAGLHVMVKVDSVAREQALIAKARSVGVEMSPLSGYWLSDSDEPVDNRAGLVLGFAAVPEPAIADALNRLRMVWSE | not soluble |
| MAHHHHHHMKNIFKYKNRLTFFRKGFSTTNKPKVEIKKTILYDSHKKNNAIFKIQHGFYLPDEYKDITLITSNLHTRTNCSLFDYTYRPILKISGEDKINFIEKYVGSDIKGLWENECRISLLLNDKGGIIDDIMIILREKYLLLYLNIQCKEKVYKYLKDKLLENGKLQVQIEEFTSHSSICIQGSKSSDVLKELIDYNNESVETNLDNCSFMSSTLTKINKIDNCILNRYTCTGEDGFDILIPNKYVNDLYNLILKNELVKPGGLAVQNTLRLESGFCEYGKDINEDITPIESNYKWSLGQRRLKELNFNGAHIIMDQIKNGTKIKRVGILINTNIVPKENTKIYSHENAEQIIGYITSSVFSPVLQKPICMGYVKSEYAHINNLIKVDCLNKLEIAQITKLPFVPLSIYKL | not soluble |
| MGSDKIHHHHHHMDTLQKTIHNSEYPVVCRSCEARHGGLCSTLTPQQLCDLNRHSSRKKLEAGNELLGQGELVTSYGNILNGVVKLSKMMSDGRQQIVGLQFAPDFLGRPFMAESKMTAEAATDVEICLFPRRIVDRMVTEVPDMERKLHSQSLKELDEARDWMLTLGRKSAQEKVASFLYMIATHIDPENDDKSCFDLPLSRADIADFLGLTIETVSRQMTKLRKEGTIRIENNRHITVPDLDVLSEAAGND | not soluble |
| MSLPCNKHPFYQQLEQQLDTTRTEGLYKNERVITSAQQANIAVADGSRVINFCANNYLGLANHPKLIAAAKAGMDSHGFGMASVRFICGTQDIHKELEHKLASFLGMEDAILYSSCFDANGGLFETLLGPEDAIISDALNHASIIDGVRLCKAKRYRYANNDMTELEAQLKQAKAEGARHIMIATDGVFSMDGVIANLKRVCDLADEYQALVMVDDSHAVGVIGANGRGTHEYCEVMDRVDIITGTLGKALGGASGGYTAGRKELVEWLRQRSRPYLFSNSLAPAIVAASIEVLSLLEEGGALRDRLWANARLFREKMSAAGFTLAGADHAIIPVMLGEAKLAQDFANALLKEGIYVTGFFFPVVPKGQARIRTQMSAGHTTEQVERAIEAFVRIGKQLNVIA | not soluble |
| MVNIPNFIDKVLSVNDTSNASLTHCIKEADIDGVIEECKDILSAQATMVEVQAPIAVCGDIHGQYTDLLRIFNRCSFPPDQNYLFLGDYVDRGRQQLEVICLLMAYKVRYPNGFFILRGNHECASINRTYGFYDECKRRYSLALYNEFQNLFNSLPLCAMISGRIFCMHGGLSPELVSWTQLAKIIRPFDPPNACLAMDLLWADPENNHTGWGKNSRGVSYIFGANVVKDFTEKMNIDLIARGHQVVQDGYEFFADKRLVTIFSAPKYCGEFDNNAGIMIVDERLIISFEILKPAMREVKIQARAAAKNKSTRSILVSSRGPKSKKG | not soluble |
| MGSDKIHHHHHHMRILQIGKFYPIRGGIEKVMYDITMGLSQRQVYCDMLCASAEKQKPENLLLNDYARILCVSTWKKVAATMLSPAMIFRLRKINKEYDIIHIHHPDPMACLALFLSGYKGPVVLHWHSDILKQKMLLKLYSPLQNWLLRRAKVIVGTTPVYVQESPFLENIQRKVISVPIGIDEMKPVPGRVAQIKERYAGKKIIFSLGRLVEYKGYEYLIKASQKLNDDYIILIGGKGPLQEYLQSLIDELGVRKKVKLLGFIDDKDLPDYFGACDLFCLSSIWKTEAFGIVQIEAMSCGKPVIAMNIPESGVSWVNINRFSGINVKPEDADALAEAITAVLTDECLYEELARGARRRYETMFTKELMTELCLNLYSGVLDSSETDYPANKKE | not soluble |
| MGIAEWRYQDVPEKLWPIQPLRDFWGINKRTEKKLNKRGIFTIGDLAKYPYHYLKRDFGVLGIDMHLHANGIDQSKLEHHHHHH | not soluble |
| RNRFTRRKIVYIHEGMNVPLLGYNAFGLIDRGTNLIQVRGSTGCNLSCIFCSVDEGPYSRTRNLDFVVDVDYLMKWFDWVAKEKGKGLEAHLDAQGEPLLYPYIVELVQELRSHPHVSVISMQSNGVLLDEKLVEELAEAGLDRVNLSIHSLDPEKAKMLMGMKNYDLNHVLEMAEALVNAGIDVLIAPVIIFGINDNEAEAFIEFARRIGAGKRWPALGFQNYVPYKFGRNPVIAKPVPFKEFYEWLRMLEEKTGMRPLVLKPHHFGMHPRPFIPLAFKR | not soluble |
| MGSDKIHHHHHHMSIRIGNAPCSWGVEFADDPRNPTWRSVLKDCAEAGYKGIELGPVGFMPEDPVELGEALAEHDLDLIGGVVFRAYHDPAAWEDVVDATHRTARALRAHGAQHLVLIDSISPRRAPTAGRAAEAEQMDKAEWTAYRNRIAESARIGAEEYGLTVGIHAHAAGFMDFEPELERLLSEVDESLLKICFDTGHHSYAGFDPVAFMKRHVGRISYMHFKDIDPKVKAEVIANRTGFYEACGQGIFCNLGLGDVDFPAVRQVLLEAGFAGWCTVEQDCDPTLDPDPVGDALKNREYLETIGFN | not soluble |
| MNDSILEPKHRGNVREIAAIDLGSNSFHMIVARIVNGSIQVLSRLKQKVKLAEGLDENAVLNQEAITRGVNCLALFAERLQGFPMENVNVVGTYTLRRAVNNDEFLRQAAKVFPYPINIISGQTEAKTIYAGVCHTQPEKGRKLVIDIGGGSTEMIIGDDFTPLMAESRHMGCVSFATQFFTDGIISPENFQRARQSAVNKIEDLGLEYRKLGWQSVLGSSGTIKTVAQVIATNLDPNGTITAERLNALIEQTLQAKHFTELNINGLNQDRVDVFVPGLAILSAVFDVFHIQQMRYSDGALREGVIYSLEKNFQVADIRASTALEHHHHHH | not soluble |
| MSQGVEFNRLMLDMRAMQADAMSLPKVTAAPELAPGQSTFADMLGQAIGKVHETQQASTQLANAFEIGKSGVDLTDVMIASQKASVSMQAMTQVRNKLVQAYQDIMQMPV | not soluble |
| MTIKVGINGFGRIGRIVFRAAQKRSDIEIVAINDLLDADYMAYMLKYDSTHGRFDGTVEVKDGHLIVNGKKIRVTAERDPANLKWDEVGVDVVAEATGLFLTDETARKHITAGAKKVVMTGPSKDNTPMFVKGANFDKYAGQDIVSNASCTTNCLAPLAKVINDNFGIIEGLMTTVHATTATQKTVDGPSHKDWRGGRGASQNIIPSSTGAAKAVGKVLPELNGKLTGMAFRVPTPNVSVVDLTVRLEKAATYEQIKAAVKAAAEGEMKGVLGYTEDDVVSTDFNGEVCTSVFDAKAGIALNDNFVKLVSWYDNETGYSNKVLDLIAHISK | soluble |
| MAYWLMKSEPDEFSISDLQRLGKARWDGVRNYQARNFLRTMAEGDEFFFYHSSCPEPGIAGIGKIVKTAYPDPTALDPDSHYHDAKATTEKNPWSALDIGFVDIFKNVLGLGYLKQQSQLEQLPLVQKGSRLSVMPVTAEQWAAILALRLEHHHHHH | soluble |
| MSLSSRNSTPLRQFGYEFFMTPLDVSKLVLPVSENYKLGPGDEVIIYIVGLPSNQEIPPVIKTIVDREGNISIPNLGVFNVWGLTLKETEELLRQELGLDLKVTVGEIRTFVIYVAGEVNRPGTHVATAVNTVIDALSIAGGVKKTGSLRNIILTRKTPSGLKTYNIDLYDVFIKGKPIDLTLRDGDTILVKPIGPTVAIAGEVKRPAIYEIKGGETIKDLIELAGGLLPSSYQYKVILQRYENGKLRIIEDSLTNKAFMNENLRDGDLVLIKKSADIPENSYSIEGYVTLPGVYEYKEGLKLSDILNPDLFFKDTNLKFAVLVRQYPKGSIPKYIAFSPEKVLTGKEDMELKPYDRLIFFKLGQSEGHHHHHH | soluble |
